In patent US20250257336A1, “ISOLATED OR ENGINEERED POLYPEPTIDES, MICROORGANISMS AS WELL AS METHOD FOR SYNTHESIZING POLYPHENOLIC PHYTOCHEMICALS PHOSPHATE DERIVATIVE USING THE POLYPEPTIDES OR MICROORGANISMS” (National Taiwan University, priority 2021, published 2025):

Experiment: enzymatic activity of the PPS of interest and its protein mutant strains, genistein as substrate (G7P formation, HPLC)
Assay type: biochemical
Details: Mg2+/ATP, 40° C., 10 minutes, pH 7.8, FIG. 30
Method: After vibration-based mixing and centrifugation (13,000 rpm, 4° C., 5 minutes), the resulting supernatant was collected, diluted, and then analyzed by HPLC. The activity unit was defined as the amount of enzyme required to yield 1 nmol of product per unit time.
Once an enzyme was prepared, its protein concentration was diluted to 0.1 mg/mL. The enzyme and the enzyme reaction liquid were mixed at a ratio of 1:1 (v/v) and were allowed to react at 40° C. for 10 minutes, at the end of which methanol was added to dilute the protein tenfold and thereby terminate the reaction. The changes in concentration of genistein (GEN) and G7P (a product of GEN phosphorylation) were analyzed. The catalytic activity of the PPS of interest in the present invention and its mutant strains were subsequently calculated and compared, as shown in FIG. 30. […] The activity test results of other protein mutant strains show no total loss of activity but a trend of decrease in activity. […] However, while the aforesaid important catalytic sites in the active domain for stabilizing the phosphate group were inferred with relatively great certainty, the amino acids in Arm1 either had relatively poor prediction results or had important catalytic sites composed of non-polar amino acids (which when substituted with Ala produce little change in property) such that the combined use of site-directed mutagenesis and enzymatic activity determination lacked accuracy.

Row | Molecule | catalytic activity (relative specific activity) compared with the PPS of interest
1 | K27A: site-directed mutant of the PPS of interest (SEQ ID NO: 13), Lys27 substituted with Ala (protein, listed as Bacillus subtilis) MKKRGVSNMYSVLFRQAEESSQLAGAAGMNLIKLTKHGLPVPDGFIIQTNALARFMEDNQLQETSENVESGIISGTFSDELKDELTSSFYKLRESYRSVAVRSSSASEDLEGASFAGQYETYLNIKTEEEFLAKVKECWASFFSGRVSSYKKKMNNQIAEPLMGIVVQGLIDSEMSGVIFSRNPVTHDDRELLISASYGLGEAVVSGSVTPDTFIVNKSSFEIQKEIGAKEIYMESAAEGIAEKETSEDMRSRFCLTDEQVIELAEITKKTEDLYGYPVDIEFGIADHQIYLLQARPITTIDQDKKAAEEKRSFMITDTDMNDFWLNMESNIEGPVSPLFSSFIVPALEYGLKKSMQKFPIGVVVDEVKLYRGHIYSKNQGGQQPPSEDCGKELFPILSEHMYDIINHTYLPFYRTLDQLAQTEHTAESALDAFQKLKAFYLTAYEEHFNIVFPQILLTNKLQAMYQDIQGESENAHFYEMLTGKMNKSLETDRCLWLFSMEVQENPNLLTIFENNKPEQLQEKLEQTDEGRHFLKNVHEFLQEYGWRSVKSHDLIEQIWVENPYFALANIQNYVRNGYHFDNEFQKTKEKREKLYNEFLENIEDPGLRTEFDRYYQWTLNSANIKDDHHFYIDAMLDAKARIFLLKIGELLAENGVIQDREDLWFLYDDEVEQALLHPVSLQEKAEKRRQIFHEYELAQAPAYLGTPTKEQLKAAEEIVGAVIEDEKNTENHIFGIAASSGIATGPVKIIRDANEFSQFAPGDVLVCKMTTPLWTSLFQDAKAIITDTGGILSHAAIIAREYGIPAVLGTRTATERLRDGDIITVDGSSGKITVVSRS | lost its activity
2 | E329A: site-directed mutant of the PPS of interest, Glu329 substituted with Ala (protein) MKKRGVSNMYSVLFRQAEESSQLAGAKGMNLIKLTKHGLPVPDGFIIQTNALARFMEDNQLQETSENVESGIISGTFSDELKDELTSSFYKLRESYRSVAVRSSSASEDLEGASFAGQYETYLNIKTEEEFLAKVKECWASFFSGRVSSYKKKMNNQIAEPLMGIVVQGLIDSEMSGVIFSRNPVTHDDRELLISASYGLGEAVVSGSVTPDTFIVNKSSFEIQKEIGAKEIYMESAAEGIAEKETSEDMRSRFCLTDEQVIELAEITKKTEDLYGYPVDIEFGIADHQIYLLQARPITTIDQDKKAAEEKRSFMITDTDMNDFWLNMASNIEGPVSPLFSSFIVPALEYGLKKSMQKFPIGVVVDEVKLYRGHIYSKNQGGQQPPSEDCGKELFPILSEHMYDIINHTYLPFYRTLDQLAQTEHTAESALDAFQKLKAFYLTAYEEHFNIVFPQILLTNKLQAMYQDIQGESENAHFYEMLTGKMNKSLETDRCLWLFSMEVQENPNLLTIFENNKPEQLQEKLEQTDEGRHFLKNVHEFLQEYGWRSVKSHDLIEQIWVENPYFALANIQNYVRNGYHFDNEFQKTKEKREKLYNEFLENIEDPGLRTEFDRYYQWTLNSANIKDDHHFYIDAMLDAKARIFLLKIGELLAENGVIQDREDLWFLYDDEVEQALLHPVSLQEKAEKRRQIFHEYELAQAPAYLGTPTKEQLKAAEEIVGAVIEDEKNTENHIFGIAASSGIATGPVKIIRDANEFSQFAPGDVLVCKMTTPLWTSLFQDAKAIITDTGGILSHAAIIAREYGIPAVLGTRTATERLRDGDIITVDGSSGKITVVSRS | relatively significant decrease in activity
3 | D627A: site-directed mutant of the PPS of interest, Asp627 substituted with Ala (protein) MKKRGVSNMYSVLFRQAEESSQLAGAKGMNLIKLTKHGLPVPDGFIIQTNALARFMEDNQLQETSENVESGIISGTFSDELKDELTSSFYKLRESYRSVAVRSSSASEDLEGASFAGQYETYLNIKTEEEFLAKVKECWASFFSGRVSSYKKKMNNQIAEPLMGIVVQGLIDSEMSGVIFSRNPVTHDDRELLISASYGLGEAVVSGSVTPDTFIVNKSSFEIQKEIGAKEIYMESAAEGIAEKETSEDMRSRFCLTDEQVIELAEITKKTEDLYGYPVDIEFGIADHQIYLLQARPITTIDQDKKAAEEKRSFMITDTDMNDFWLNMESNIEGPVSPLFSSFIVPALEYGLKKSMQKFPIGVVVDEVKLYRGHIYSKNQGGQQPPSEDCGKELFPILSEHMYDIINHTYLPFYRTLDQLAQTEHTAESALDAFQKLKAFYLTAYEEHFNIVFPQILLTNKLQAMYQDIQGESENAHFYEMLTGKMNKSLETDRCLWLFSMEVQENPNLLTIFENNKPEQLQEKLEQTDEGRHFLKNVHEFLQEYGWRSVKSHDLIEQIWVENPYFALANIQNYVRNGYHFDNEFQKTKEKREKLYNEFLENIEDPGLRTEFDRYYQWTLNSANIKADHHFYIDAMLDAKARIFLLKIGELLAENGVIQDREDLWFLYDDEVEQALLHPVSLQEKAEKRRQIFHEYELAQAPAYLGTPTKEQLKAAEEIVGAVIEDEKNTENHIFGIAASSGIATGPVKIIRDANEFSQFAPGDVLVCKMTTPLWTSLFQDAKAIITDTGGILSHAAIIAREYGIPAVLGTRTATERLRDGDIITVDGSSGKITVVSRS | significant decrease in protein activity
4 | H630A: site-directed mutant of the PPS of interest, His630 substituted with Ala (protein) MKKRGVSNMYSVLFRQAEESSQLAGAKGMNLIKLTKHGLPVPDGFIIQTNALARFMEDNQLQETSENVESGIISGTFSDELKDELTSSFYKLRESYRSVAVRSSSASEDLEGASFAGQYETYLNIKTEEEFLAKVKECWASFFSGRVSSYKKKMNNQIAEPLMGIVVQGLIDSEMSGVIFSRNPVTHDDRELLISASYGLGEAVVSGSVTPDTFIVNKSSFEIQKEIGAKEIYMESAAEGIAEKETSEDMRSRFCLTDEQVIELAEITKKTEDLYGYPVDIEFGIADHQIYLLQARPITTIDQDKKAAEEKRSFMITDTDMNDFWLNMESNIEGPVSPLFSSFIVPALEYGLKKSMQKFPIGVVVDEVKLYRGHIYSKNQGGQQPPSEDCGKELFPILSEHMYDIINHTYLPFYRTLDQLAQTEHTAESALDAFQKLKAFYLTAYEEHFNIVFPQILLTNKLQAMYQDIQGESENAHFYEMLTGKMNKSLETDRCLWLFSMEVQENPNLLTIFENNKPEQLQEKLEQTDEGRHFLKNVHEFLQEYGWRSVKSHDLIEQIWVENPYFALANIQNYVRNGYHFDNEFQKTKEKREKLYNEFLENIEDPGLRTEFDRYYQWTLNSANIKDDHAFYIDAMLDAKARIFLLKIGELLAENGVIQDREDLWFLYDDEVEQALLHPVSLQEKAEKRRQIFHEYELAQAPAYLGTPTKEQLKAAEEIVGAVIEDEKNTENHIFGIAASSGIATGPVKIIRDANEFSQFAPGDVLVCKMTTPLWTSLFQDAKAIITDTGGILSHAAIIAREYGIPAVLGTRTATERLRDGDIITVDGSSGKITVVSRS | significant decrease in protein activity
5 | H795A: site-directed mutant of the PPS of interest, His795 substituted with Ala (protein) MKKRGVSNMYSVLFRQAEESSQLAGAKGMNLIKLTKHGLPVPDGFIIQTNALARFMEDNQLQETSENVESGIISGTFSDELKDELTSSFYKLRESYRSVAVRSSSASEDLEGASFAGQYETYLNIKTEEEFLAKVKECWASFFSGRVSSYKKKMNNQIAEPLMGIVVQGLIDSEMSGVIFSRNPVTHDDRELLISASYGLGEAVVSGSVTPDTFIVNKSSFEIQKEIGAKEIYMESAAEGIAEKETSEDMRSRFCLTDEQVIELAEITKKTEDLYGYPVDIEFGIADHQIYLLQARPITTIDQDKKAAEEKRSFMITDTDMNDFWLNMESNIEGPVSPLFSSFIVPALEYGLKKSMQKFPIGVVVDEVKLYRGHIYSKNQGGQQPPSEDCGKELFPILSEHMYDIINHTYLPFYRTLDQLAQTEHTAESALDAFQKLKAFYLTAYEEHFNIVFPQILLTNKLQAMYQDIQGESENAHFYEMLTGKMNKSLETDRCLWLFSMEVQENPNLLTIFENNKPEQLQEKLEQTDEGRHFLKNVHEFLQEYGWRSVKSHDLIEQIWVENPYFALANIQNYVRNGYHFDNEFQKTKEKREKLYNEFLENIEDPGLRTEFDRYYQWTLNSANIKDDHHFYIDAMLDAKARIFLLKIGELLAENGVIQDREDLWFLYDDEVEQALLHPVSLQEKAEKRRQIFHEYELAQAPAYLGTPTKEQLKAAEEIVGAVIEDEKNTENHIFGIAASSGIATGPVKIIRDANEFSQFAPGDVLVCKMTTPLWTSLFQDAKAIITDTGGILSAAAIIAREYGIPAVLGTRTATERLRDGDIITVDGSSGKITVVSRS | total loss of PPS activity
6 | H629A: site-directed mutant of the PPS of interest, His629 substituted with Ala (protein) MKKRGVSNMYSVLFRQAEESSQLAGAKGMNLIKLTKHGLPVPDGFIIQTNALARFMEDNQLQETSENVESGIISGTFSDELKDELTSSFYKLRESYRSVAVRSSSASEDLEGASFAGQYETYLNIKTEEEFLAKVKECWASFFSGRVSSYKKKMNNQIAEPLMGIVVQGLIDSEMSGVIFSRNPVTHDDRELLISASYGLGEAVVSGSVTPDTFIVNKSSFEIQKEIGAKEIYMESAAEGIAEKETSEDMRSRFCLTDEQVIELAEITKKTEDLYGYPVDIEFGIADHQIYLLQARPITTIDQDKKAAEEKRSFMITDTDMNDFWLNMESNIEGPVSPLFSSFIVPALEYGLKKSMQKFPIGVVVDEVKLYRGHIYSKNQGGQQPPSEDCGKELFPILSEHMYDIINHTYLPFYRTLDQLAQTEHTAESALDAFQKLKAFYLTAYEEHFNIVFPQILLTNKLQAMYQDIQGESENAHFYEMLTGKMNKSLETDRCLWLFSMEVQENPNLLTIFENNKPEQLQEKLEQTDEGRHFLKNVHEFLQEYGWRSVKSHDLIEQIWVENPYFALANIQNYVRNGYHFDNEFQKTKEKREKLYNEFLENIEDPGLRTEFDRYYQWTLNSANIKDDAHFYIDAMLDAKARIFLLKIGELLAENGVIQDREDLWFLYDDEVEQALLHPVSLQEKAEKRRQIFHEYELAQAPAYLGTPTKEQLKAAEEIVGAVIEDEKNTENHIFGIAASSGIATGPVKIIRDANEFSQFAPGDVLVCKMTTPLWTSLFQDAKAIITDTGGILSHAAIIAREYGIPAVLGTRTATERLRDGDIITVDGSSGKITVVSRS | significant decrease in protein activity
